Experimental data taken from patent US20110104713A1, “PRODUCTS AND PROCESSES FOR MODULATING PEPTIDE-PEPTIDE BINDING DOMAIN INTERACTIONS” (priority 2002, published 2011).
Values belong to the binder of their own block, whether it stands above or below them. Non-standard residues stand in square brackets, D forms with d. No end group written: not given here. pT = C[C@@H](OP(=O)(O)O)[C@H](N)C(=O)O

Tests used:
[1] = target: T1, BRCTtide-7pS, GAAYDI-pS-… (Artificial Sequence); assay: isothermal titration calorimetry, peptide injected into GST-PTIP BRCT domains
T1 sequence (peptide, phosphoserine (pS) at position 7): GAAYDISQVFPFAKKK

[2] = target: T2, BRCTtide-7pT, GAAYDI-pT-… (Artificial Sequence); assay: as above
T2 sequence (peptide, phosphothreonine (pT) at position 7): GAAYDITQVFPFAKKK

[3] = target: degenerate peptide library GAXXXB(pS/pT)QJXXXAKKK (SEQ ID NO: 62); assay: GST-(BRCT)2 on glutathione beads, soluble degenerate library, Edman sequencing of bound peptides
[4] = target: degenerate peptide library GAXXXXpSXXFXXAYKKK (SEQ ID NO: 59); assay: as above
[5] = target: degenerate peptide library MAXXXXpTXXXXAKKK (SEQ ID NO: 47); assay: as above
[6] = target: degenerate peptide library Met-Ala-X-X-X-X-pSer-X-X-X-X-X-Ala-Lys-Lys-Lys (SEQ ID NO: 58); assay: as above
[7] = target: GST-Plk1 (full-length), prepared in SF9 cells (human)
[8] = target: degenerate peptide library MAXXXXSpTXXXXAKKK (SEQ ID NO: 48); assay: GST-PBD on glutathione beads, oriented peptide library screening
[9] = target: degenerate peptide library MAXXXXpTPXXXXAKKK (SEQ ID NO: 46); assay: as above
[10] = target: T1, BRCTtide-7pS, GAAYDI-pS-… (Artificial Sequence); assay: isothermal titration calorimetry, peptide injected into GST-BRCA1 BRCT domains

Plk1 kinase activity towards casein (32P incorporation, SDS-PAGE/autoradiography) [7]: 2.6 fold
Binder: MAGPMQS[pT]PLNGAKK [PoloBoxtide-optimal, MAGPMQ-S-pT-P-LNGAKK]

selectivity ratio, Pro at pThr+1 [8]: 1.6 | selectivity ratio, Ser at pThr-1 [9]: 3
B4: GST-hPlk3 PBD (human Plk3 residues 335-646) (protein)
chain: TPPNPARSLFAKVTKSLFGRKKKSKNHAQERDEVSGLVSGLMRTSVGHQDARPEAPAASGPAPVSLVETAPEDSSPRGTLASSGDGFEEGLTVATVVESALCALRNCIAFMPPAEQNPAPLAQPEPLVWVSKWVDYSNKFGFGYQLSSRRVAVLFNDGTHMALSANRKTVHYNPTSTKHFSFSVGAVPRALQPQLGILRYFASYMEQHLMKGGDLPSVEEVEVPAPPLLLQWVKTDQALLMLFSDGTVQVNFYGDHTKLILSGWEPLLVTFVARNRSACTYLASHLRQLGCSPDLRQRLRYALRLLRDRSPA

selectivity ratio, Pro at pThr+1 [8]: 1.7 | selectivity ratio, Ser at pThr-1 [9]: 7.5
B5: GST-hPlk2 PBD (human Plk2 residues 355-685) (protein)
chain: HLSSPAKNFFKKAAAALFGGKKDKARYIDTHNRVSKEDEDIYKLRHDLKKTSITQQPSKHRTDEELQPPTTTVARSGTPAVENKQQIGDAIRMIVRGTLGSCSSSSECLEDSTMGSVADTVARVLRGCLENMPEADCIPKEQLSTSFQWVTKWVDYSNKYGFGYQLSDHTVGVLFNNGAHMSLLPDKKTVHYYAELGQCSVFPATDAPEQFISQVTVLKYFSHYMEENLMDGGDLPSVTDIRRPRLYLLQWLKSDKALMMLFNDGTFQVNFYHDHTKIIICSQNEEYLLTYINEDRISTTFRLTTLLMSGCSSELKNRMEYALNMLLQRCN

More lines, now with the values behind:

B1: GST-PTIP tandem BRCT domains (residues 550-757) (protein)
chain: TPELTPFVLFTGFEPVQVQQYIKKLYILGGEVAESAQKCTHLIASKVTRTVKFLTAISVVKHIVTPEWLEECFRCQKFIDEQNYILRDAEAEVLFSFSLEESLKRAHVSPLFKAKYFYITPGICPSLSTMKAIVECAGGKVLSKQPSFRKLMEHKQNSSLSEIILISCENDLHLCREYFARGIDVHNAEFVLTGVLTQTLDYESYKFN
Kd [1]: 280 nM | Kd [2]: 14300 nM | selectivity ratio, Phe at (pSer/pThr)+3 [3]: 7 | selectivity ratio, Ile at pSer+5 [4]: 1.9 | selectivity ratio, Ile at pThr-1 [5]: 2.1 | selectivity ratio, Phe at pSer+3 [6]: 2.3

B2: GST-Cdc5p PBD (Saccharomyces cerevisiae Cdc5p residues 357-705) (protein)
chain: EDIPEEQSLVNFKDCMEKSLLLESMSSDKIQRQKRDYISSIKSSIDKLEEYHQNRPFLPHSLSPGGTKQKYKEVVDIEAQRRLNDLAREARIRRAQQAVLRKELIATSTNVIKSEISLRILASECHLTLNGIVEAEAQYKMGGLPKSRLPKIKHPMIVTKWVDYSNKHGFSYQLSTEDIGVLFNNGTTVLRLADAEEFWYISYDDREGWVASHYLLSEKPRELSRHLEVVDFFAKYMKANLSRVSTFGREEYHKDDVFLRRYTRYKPFVMFELSDGTFQFNFKDHHKMAISDGGKLVTYISPSHESTTYPLVEVLKYGEIPGYPESNFREKLTLIKEGLKQKSTIVTVD
selectivity ratio, Pro at pThr+1 [8]: 1.4 | selectivity ratio, Ser at pThr-1 [9]: 5.3

B3: GST-BRCA1 tandem BRCT domains (residues 1634-1863) (protein)
chain: REKPELTASTERVNKRMSMVVSGLTPEEFMLVYKFARKHHITLTNLITEETTHVVMKTDAEFVCERTLKYFLGIAGGKWVVSYFWVTQSIKERKMLNEHDFEVRGDVVNGRNHQGPKRARESQDRKIFRGLEICCYGPFTNMPTDQLEWMVQLCGASVVKELSSFTLGTGVHPIVVVQPDAWTEDNGFHAIGQMCEAPVVTREWVLDSVALYQCQELDTYLIPQIPHSHY
Kd [10]: 400 nM | selectivity ratio, Phe at (pSer/pThr)+3 [3]: 7.5 | selectivity ratio, Phe at pSer+1 [4]: 2.1 | selectivity ratio, Phe at pThr+3 [5]: 1.9 | selectivity ratio, Phe at pSer+3 [6]: 2.4
